Data set [1] deals with T1, SsoMCM WT (Sulfolobus solfataricus, UniProt Q9UXG1 1-686).
T1 sequence: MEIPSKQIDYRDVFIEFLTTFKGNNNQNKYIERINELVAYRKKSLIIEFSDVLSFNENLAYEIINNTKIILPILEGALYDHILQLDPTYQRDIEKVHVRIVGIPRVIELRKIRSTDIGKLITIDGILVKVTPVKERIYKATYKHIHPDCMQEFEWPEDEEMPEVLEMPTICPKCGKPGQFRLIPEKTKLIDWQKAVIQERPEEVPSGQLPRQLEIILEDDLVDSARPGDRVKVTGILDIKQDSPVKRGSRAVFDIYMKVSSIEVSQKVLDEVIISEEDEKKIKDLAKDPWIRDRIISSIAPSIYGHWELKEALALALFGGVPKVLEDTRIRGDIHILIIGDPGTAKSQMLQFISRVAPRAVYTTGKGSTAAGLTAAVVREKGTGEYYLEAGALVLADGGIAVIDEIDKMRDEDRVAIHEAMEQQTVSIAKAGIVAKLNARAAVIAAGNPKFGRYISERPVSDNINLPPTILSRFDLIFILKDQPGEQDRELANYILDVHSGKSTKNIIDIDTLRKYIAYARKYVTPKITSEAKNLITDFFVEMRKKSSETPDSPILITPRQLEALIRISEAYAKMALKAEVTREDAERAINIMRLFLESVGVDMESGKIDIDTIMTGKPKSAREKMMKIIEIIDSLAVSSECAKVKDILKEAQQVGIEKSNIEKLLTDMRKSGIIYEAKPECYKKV
The data set is described as follows: fluorescence anisotropy.

The data set “SEC” concerns the molecule itself. The data set is described as follows: SEC. Background: In gel filtration, larger molecules generally elute earlier.
Data set [2] concerns the target T1, SsoMCM WT. Nature of the data set: single-pair FRET.
The next data set concerns the target T2, SsoMCM K323A/R440A (Sulfolobus solfataricus, UniProt Q9UXG1 1-686, K323A;R440A).
T2 sequence: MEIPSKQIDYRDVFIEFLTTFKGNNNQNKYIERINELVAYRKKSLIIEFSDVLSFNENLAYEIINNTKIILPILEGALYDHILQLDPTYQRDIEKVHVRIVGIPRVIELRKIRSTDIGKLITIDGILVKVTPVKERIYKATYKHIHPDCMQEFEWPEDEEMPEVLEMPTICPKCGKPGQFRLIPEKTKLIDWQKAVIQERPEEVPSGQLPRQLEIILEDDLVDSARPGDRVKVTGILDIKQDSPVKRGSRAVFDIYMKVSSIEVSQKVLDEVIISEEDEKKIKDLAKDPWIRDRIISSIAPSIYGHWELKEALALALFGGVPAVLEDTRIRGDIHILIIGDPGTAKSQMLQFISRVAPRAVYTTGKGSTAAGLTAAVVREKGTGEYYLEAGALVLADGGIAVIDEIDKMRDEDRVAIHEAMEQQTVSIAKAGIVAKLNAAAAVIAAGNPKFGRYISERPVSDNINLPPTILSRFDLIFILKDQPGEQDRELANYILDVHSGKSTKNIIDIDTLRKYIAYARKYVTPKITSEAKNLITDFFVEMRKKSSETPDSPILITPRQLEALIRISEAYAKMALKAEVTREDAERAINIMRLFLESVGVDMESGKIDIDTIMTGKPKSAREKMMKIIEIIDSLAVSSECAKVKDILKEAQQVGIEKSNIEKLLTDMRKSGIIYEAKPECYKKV
Nature of the data set: single-pair FRET.

The Kd is the equilibrium constant for the complex coming apart. Low values mean tighter binding, high ones weaker binding. In general, stoichiometry N refers to the number of molecules, sites or subunits per partner or assembly.

B1: ssDNA (66 nt) (ssDNA)
DNA: CACCTCTCCCTACGCTTCCCACCCACCCCGACCGGCATCTGCTATGGTACGCTGAGCGAGAGTAGC
B1: binding with SsoMCM WT [1] was put at a Kd of 26 ± 5 nM.

B2: Full-length wild-type Sulfolobus solfataricus minichromosome maintenance (MCM) helicase (enzyme, UniProt Q9UXG1 1-686, looked up)
chain: MEIPSKQIDYRDVFIEFLTTFKGNNNQNKYIERINELVAYRKKSLIIEFSDVLSFNENLAYEIINNTKIILPILEGALYDHILQLDPTYQRDIEKVHVRIVGIPRVIELRKIRSTDIGKLITIDGILVKVTPVKERIYKATYKHIHPDCMQEFEWPEDEEMPEVLEMPTICPKCGKPGQFRLIPEKTKLIDWQKAVIQERPEEVPSGQLPRQLEIILEDDLVDSARPGDRVKVTGILDIKQDSPVKRGSRAVFDIYMKVSSIEVSQKVLDEVIISEEDEKKIKDLAKDPWIRDRIISSIAPSIYGHWELKEALALALFGGVPKVLEDTRIRGDIHILIIGDPGTAKSQMLQFISRVAPRAVYTTGKGSTAAGLTAAVVREKGTGEYYLEAGALVLADGGIAVIDEIDKMRDEDRVAIHEAMEQQTVSIAKAGIVAKLNARAAVIAAGNPKFGRYISERPVSDNINLPPTILSRFDLIFILKDQPGEQDRELANYILDVHSGKSTKNIIDIDTLRKYIAYARKYVTPKITSEAKNLITDFFVEMRKKSSETPDSPILITPRQLEALIRISEAYAKMALKAEVTREDAERAINIMRLFLESVGVDMESGKIDIDTIMTGKPKSAREKMMKIIEIIDSLAVSSECAKVKDILKEAQQVGIEKSNIEKLLTDMRKSGIIYEAKPECYKKV
Regarding B2, the “stoichiometry N” value in the data set “SEC” was 6.

B3: SsoMCM K323A (enzyme, Sulfolobus solfataricus, UniProt Q9UXG1 1-686, looked up)
chain: MEIPSKQIDYRDVFIEFLTTFKGNNNQNKYIERINELVAYRKKSLIIEFSDVLSFNENLAYEIINNTKIILPILEGALYDHILQLDPTYQRDIEKVHVRIVGIPRVIELRKIRSTDIGKLITIDGILVKVTPVKERIYKATYKHIHPDCMQEFEWPEDEEMPEVLEMPTICPKCGKPGQFRLIPEKTKLIDWQKAVIQERPEEVPSGQLPRQLEIILEDDLVDSARPGDRVKVTGILDIKQDSPVKRGSRAVFDIYMKVSSIEVSQKVLDEVIISEEDEKKIKDLAKDPWIRDRIISSIAPSIYGHWELKEALALALFGGVPAVLEDTRIRGDIHILIIGDPGTAKSQMLQFISRVAPRAVYTTGKGSTAAGLTAAVVREKGTGEYYLEAGALVLADGGIAVIDEIDKMRDEDRVAIHEAMEQQTVSIAKAGIVAKLNARAAVIAAGNPKFGRYISERPVSDNINLPPTILSRFDLIFILKDQPGEQDRELANYILDVHSGKSTKNIIDIDTLRKYIAYARKYVTPKITSEAKNLITDFFVEMRKKSSETPDSPILITPRQLEALIRISEAYAKMALKAEVTREDAERAINIMRLFLESVGVDMESGKIDIDTIMTGKPKSAREKMMKIIEIIDSLAVSSECAKVKDILKEAQQVGIEKSNIEKLLTDMRKSGIIYEAKPECYKKV
Turning to B3, the “stoichiometry N” value in “SEC” stood at 6.

B4: SsoMCM R440A (enzyme, Sulfolobus solfataricus, UniProt Q9UXG1 1-686, looked up)
chain: MEIPSKQIDYRDVFIEFLTTFKGNNNQNKYIERINELVAYRKKSLIIEFSDVLSFNENLAYEIINNTKIILPILEGALYDHILQLDPTYQRDIEKVHVRIVGIPRVIELRKIRSTDIGKLITIDGILVKVTPVKERIYKATYKHIHPDCMQEFEWPEDEEMPEVLEMPTICPKCGKPGQFRLIPEKTKLIDWQKAVIQERPEEVPSGQLPRQLEIILEDDLVDSARPGDRVKVTGILDIKQDSPVKRGSRAVFDIYMKVSSIEVSQKVLDEVIISEEDEKKIKDLAKDPWIRDRIISSIAPSIYGHWELKEALALALFGGVPKVLEDTRIRGDIHILIIGDPGTAKSQMLQFISRVAPRAVYTTGKGSTAAGLTAAVVREKGTGEYYLEAGALVLADGGIAVIDEIDKMRDEDRVAIHEAMEQQTVSIAKAGIVAKLNAAAAVIAAGNPKFGRYISERPVSDNINLPPTILSRFDLIFILKDQPGEQDRELANYILDVHSGKSTKNIIDIDTLRKYIAYARKYVTPKITSEAKNLITDFFVEMRKKSSETPDSPILITPRQLEALIRISEAYAKMALKAEVTREDAERAINIMRLFLESVGVDMESGKIDIDTIMTGKPKSAREKMMKIIEIIDSLAVSSECAKVKDILKEAQQVGIEKSNIEKLLTDMRKSGIIYEAKPECYKKV
As for B4, the “stoichiometry N” value in “SEC” came to 6.

B5: SsoMCM K323A/R440A (enzyme, Sulfolobus solfataricus, UniProt Q9UXG1 1-686, looked up)
chain: MEIPSKQIDYRDVFIEFLTTFKGNNNQNKYIERINELVAYRKKSLIIEFSDVLSFNENLAYEIINNTKIILPILEGALYDHILQLDPTYQRDIEKVHVRIVGIPRVIELRKIRSTDIGKLITIDGILVKVTPVKERIYKATYKHIHPDCMQEFEWPEDEEMPEVLEMPTICPKCGKPGQFRLIPEKTKLIDWQKAVIQERPEEVPSGQLPRQLEIILEDDLVDSARPGDRVKVTGILDIKQDSPVKRGSRAVFDIYMKVSSIEVSQKVLDEVIISEEDEKKIKDLAKDPWIRDRIISSIAPSIYGHWELKEALALALFGGVPAVLEDTRIRGDIHILIIGDPGTAKSQMLQFISRVAPRAVYTTGKGSTAAGLTAAVVREKGTGEYYLEAGALVLADGGIAVIDEIDKMRDEDRVAIHEAMEQQTVSIAKAGIVAKLNAAAAVIAAGNPKFGRYISERPVSDNINLPPTILSRFDLIFILKDQPGEQDRELANYILDVHSGKSTKNIIDIDTLRKYIAYARKYVTPKITSEAKNLITDFFVEMRKKSSETPDSPILITPRQLEALIRISEAYAKMALKAEVTREDAERAINIMRLFLESVGVDMESGKIDIDTIMTGKPKSAREKMMKIIEIIDSLAVSSECAKVKDILKEAQQVGIEKSNIEKLLTDMRKSGIIYEAKPECYKKV
With B5, the “stoichiometry N” value in the data set “SEC” is 6.

B6: spFRET fork 5'-tail 50 (51 nt) (mixed)
DNA 1: TGGCGACGGCAGCGAGGCTTTTTTTTTTTTTTTTTTTTTTTTTTTTTTT
DNA 2: TTTTTTTTTTTTTTTTTTTTTTTTTTTTTTTTTTTTTTTTTTTTTTTTTTTGCCTCGCTGCCGTCGCCA
Turning to B6, the binding result with SsoMCM WT [2] and with SsoMCM K323A/R440A was “binds” in each case.

B7: spFRET fork 5'-tail 70 (71 nt) (mixed)
DNA 1: TGGCGACGGCAGCGAGGCTTTTTTTTTTTTTTTTTTTTTTTTTTTTTTT
DNA 2: TTTTTTTTTTTTTTTTTTTTTTTTTTTTTTTTTTTTTTTTTTTTTTTTTTTTTTTTTTTTTTTTTTTTTTTGCCTCGCTGCCGTCGCCA
With B7, the binding result with SsoMCM WT [2] and with SsoMCM K323A/R440A was “binds” each time.

For the origin of these results see article PMC3159478 (Nucleic Acids Research, 2011).
